Here are results for six molecules from paper PMC7457611 (bioRxiv, 2020).

The assay addresses SARS-CoV-2 spike receptor-binding domain (RBD), residues 331-524 (SARS-CoV-2, early isolate GenBank …, UniProt P0DTC2). The assay can be described thus: SPR.

B1: C119 IgG (antibody, V domains shown)
VH: QVQLVQSGAEVKKPGASVKVSCKASGYTFTSYYMHWVRQAPGQGLEWMGIINPSGGSTSYAQKLQGRVTMTRDTSTSTVYMELSSLRSEDTAVYYCARANHETTMDTYYYYYYMDVWGKGTTVTVSS
VL: QSALTQPASVSGSPGQSITISCTGTSSDVGGYKYVSWYQRHPGKAPKLMIYDVSNRPSGVSNRFSGSKSGNTASLTISGLQAEDEADYYCSSYTSSSTSVVFGGGTQLTVL
Turning to B1, the binding result is reported as “binds”.

B2: C002 IgG (antibody, V domains shown)
VH: EVQLVESGGGVVQPGRSLRLSCAASGFTFSIYGMHWVRQAPGKGLEWVAVISYDGSNKYYADSVKGRFTISRDNSKNTLYLQMNSLRAEDTAVYYCAKEGRPSDIVVVVAFDYWGQGTLVTVSS
VL: not shown
On to B2, for which the binding result is on record as “binds”.

B3: C104 IgG (antibody, V domains shown)
VH: QVQLQQWGAGLLKPSETLSLSCAVYGGSLSGYYWSWIRQPPGKGLEWIGEINHFGSTGYNPSLKSRVTISVDTSKSQFSVKLSSVTAADTAVYYCARKPLLYSNLSPGAFDIWGQGTMVTVSS
VL: EIVLTQSPGTVSLSPGERATLSCWASQSVSASYLAWYQQKPGQAPRLLIYGASSRATGIPDRFSGSGSGTDFTLTISRLEPEDFAVYYCQQYGTTPRTFGGGTKVEIK
For B3, the binding result is “binds”.

B4: C105 IgG (antibody, V domains shown)
VH: QVQLVESGGGLIQPGGSLRLSCAASGFTVSSNYMSWVRQAPGKGLEWVSVIYSGGSTYYADSVKGRFTISRDNSKNTLYLQMNSLRAEDTAVYYCARGEGWELPYDYWGQGTLVTVSS
VL: QSALTQPPSASGSPGQSVTISCTGTSSDVGGYKYVSWYQQHPGKAPKLMIYEVSKRPSGVPDRFSGSKSGNTASLTVSGLQAEDEADYYCSSYEGSNNFVVFGGGTKLTVL
Consider B4, for which the binding result is listed as “binds”.

B5: C110 IgG (antibody, V domains shown)
VH: QVQLQQSGAEVKKPGESLKISCKGSGYSFTSYWIGWVRQMPGKGLEWMGIIYPGDSDTRYSPSFQGQVTISADKSISTAYMQWSSLKASDTAMYYCARSFRDDPRIAVAGPADAFDIWGQGTMVTVSS
VL: DIQMTQSPSTLSASVGDRVTITCRASQSISYWLAWYQQKPGKAPKLLIYQASSLESGVPSRFSGSESGTEFTLTISSLQPDDFATYYCQQYNSYPYTFGQGTKLEIK
Take B5: the binding result was “binds”.

B6: C121 IgG (antibody, V domains shown)
VH: not shown
VL: QSALTQPASVSGSPGQSITISCTGTSSDVGSYNLVSWYQQHPGKAPKLMIYEGSKRPSGVSNRFSGSKSGNTASLTISGLQAEDEADYYCCSYAGSSTLVFGGGTKLTVL
With B6, the binding result was “binds”.
